From patent US6297019, “Recombinant polynucleotides encoding CYP7 promoter-binding factors” (Tularik Inc.) come the findings set out here.

The data set has as its target T1, CPF (clone 113) (Homo sapiens).
T1 chain: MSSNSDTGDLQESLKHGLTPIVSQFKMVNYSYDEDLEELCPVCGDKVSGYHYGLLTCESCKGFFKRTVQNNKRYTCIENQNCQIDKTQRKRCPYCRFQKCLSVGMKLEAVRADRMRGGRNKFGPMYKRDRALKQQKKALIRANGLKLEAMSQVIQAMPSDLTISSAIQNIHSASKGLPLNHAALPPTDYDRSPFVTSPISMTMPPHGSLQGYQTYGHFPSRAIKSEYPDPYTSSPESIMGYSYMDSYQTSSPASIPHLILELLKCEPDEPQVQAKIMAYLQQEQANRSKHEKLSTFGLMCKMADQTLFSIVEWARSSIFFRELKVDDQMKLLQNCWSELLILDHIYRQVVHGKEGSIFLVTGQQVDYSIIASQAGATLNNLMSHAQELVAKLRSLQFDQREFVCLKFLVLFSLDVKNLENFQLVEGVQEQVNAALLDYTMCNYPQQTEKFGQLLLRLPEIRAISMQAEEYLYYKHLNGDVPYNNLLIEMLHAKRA
Put plainly: EMSA; same DNA sequence as endogenous protein; exact probe not stated; complex disrupted by anti-CPF antibody. The note with it: tags: TNT in vitro transcription/translation; label: 32P. An excerpt:
Characterization of CPF. Clone #113 encodes a full length polypeptyde of 495 amino acids, with an in-frame stop codon 30 nucleotides upstream of the first ATG. We named the protein as CPF for CYP7 Promoter-binding Factor. […] The closest homologs of CPF are the mouse version of the family, LRH-1 (SEQ ID NOS:7, 8)and a human variant, hFTF (SEQ ID NOS:9, 10). To confirm the cloned CPF is the factor responsible for the CYP7 promoter binding activity, in vitro translated CPF was used side-by-side with the HepG2 nuclear extracts in gel shift experiments. We found in vitro translated CPF recognized the same DNA sequence as the endogenous protein does and the gel shift patterns between these two appear to be identical. Antibodies raised against a peptide containing the Ftz-F1 box were used in gel shift experiments. We found the DNA-protein complex formed either with HepG2 nuclear extracts or with in vitro translated CPF was disrupted by the specific antibody but not by preimmune serum. Furthermore, the antibody recognized a hepatic-specific cellular protein that comigrates with the in vitro translated CPF. The endogenous gene product recognized by the Ftz-F1-specific antibody is apparently hepatic specific since there is no corresponding protein in 293 cells.

B1: CYP7 promoter wild-type oligo (dsDNA)
DNA 1: TCTGATACCTGTGGACTTAGTTCAAGGCCAGTTA
DNA 2: TAACTGGCCTTGAACTAAGTCCACAGGTATCAGA
As for B1, the binding result was “binds”.
